First the molecules themselves.
B1: Azoarcus group I ribozyme (parent)
chain: GUGCCUUGCGCCGGGAAACCACGCAAGGGAUGGUGUCAAAUUCGGCGAAACCUAAGCGCCCGCCCGGGCGUAUGGCAACGCCGAGCCAAGCUUCGGCGCCUGCGCCGAUGAAGGUGUAGAGACUAGACGGCACCCACCUAAGGCAAACGCUAUGGUGAAGGCAUAGUCCAGGGAGUGGCGAAAGUCACACAAACCGG

Variants of B1 are the subject of this series. The experiment in a line: reverse-splicing fitness (ratio to wild type); higher = more active; in vitro selection; Mg2+ level not given. In outline: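 An in vitro group I ribozyme library with randomized positions was T7-transcribed and gel-purified. In triplicate, 10 pmol RNA in EPPS pH 7.5 was reacted with 50 pmoles of a 30-nt RNA substrate for 1 h at 37 °C across several added MgCl2 levels (1–48 mM), then stopped with EDTA. Products were reverse transcribed from a substrate-complementary primer, PCR-amplified and sequenced (HiSeq 4000). Fitness is a variant's read proportion after selection over that before, normalised to wild type.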
As for A111U A120G C150U C169A, the reverse-splicing fitness turned out to be 0.0593.

In the case of A111U A120G C150U C169G, the reverse-splicing fitness was determined as 0.112.

Turning to A111U A120G C150G C169G U176A, the reverse-splicing fitness was 0.00621.

Consider A111U A120G C150G C169G U176C, for which the reverse-splicing fitness amounted to 0.00471.

Consider A111U A120G C150G C169G U176G, for which the reverse-splicing fitness turned out to be 0.00442.

As for A111U A120U A145C C169G U176G, the reverse-splicing fitness came to 0.00199.

Take A111U A120U A145C C169G U176C: the reverse-splicing fitness was 0.00515.

In the case of A111U A120U A145C C169G U176A, the reverse-splicing fitness is 0.00441.

Take A111U A120G C150U C169G U176G: the reverse-splicing fitness was determined as 0.00503.

On to A111U A120G C150U C169G U176A, for which the reverse-splicing fitness is 0.0314.

As to A111U A120G C150U C169G U176C, the reverse-splicing fitness amounted to 0.0391.

A111U A120U A145C C150U U176G: the reverse-splicing fitness turned out to be 0.0208.

For the variant A111U A120U A145C C150U U176C, the reverse-splicing fitness worked out at 0.0423.

For the variant A111U A120U A145C C150U U176A, the reverse-splicing fitness is 0.0565.

Regarding A111U A120U A145G C150A C169U U176C, the reverse-splicing fitness amounted to 0.00537.

For A111U A120U A145G C150A C169U U176A, the reverse-splicing fitness was 0.00532.

Regarding A111U A120U A145G C150A C169U U176G, the reverse-splicing fitness was determined as 0.00312.

As to A111U A120U A145C C150A C169A, the reverse-splicing fitness was 0.00256.

As to A111U A120U A145C C150A C169U, the reverse-splicing fitness was 0.00469.

In the case of A111U A120U A145C C150A C169G, the reverse-splicing fitness worked out at 0.00394.

On to A111U A120G C150G C169A, for which the reverse-splicing fitness was 0.0142.

In the case of A111U A120G C150G C169G, the reverse-splicing fitness is 0.018.

As to A111U A120G C150G C169U, the reverse-splicing fitness came out at 0.019.

As to A111U A120U A145U C150U C169U U176G, the reverse-splicing fitness worked out at 0.00253.

On to A111U A120U A145U C150U C169U U176C, for which the reverse-splicing fitness came to 0.00988.

As to A111U A120U A145U C150U C169U U176A, the reverse-splicing fitness came to 0.00718.

Take A111U A120U A145U C150G C169G U176C: the reverse-splicing fitness came out at 0.00228.

Take A111U A120U A145U C150G C169G U176A: the reverse-splicing fitness is 0.00294.

For the variant A111U A120U A145U C150G C169G U176G, the reverse-splicing fitness came out at 0.00207.

As for A111U A120G C150U C169U U176A, the reverse-splicing fitness is 0.0401.

For the variant A111U A120G C150U C169U U176C, the reverse-splicing fitness was 0.0386.

Turning to A111U A120G C150U C169U U176G, the reverse-splicing fitness came out at 0.00701.

In the case of A111U A120G A145U C150G C169U, the reverse-splicing fitness worked out at 0.0212.

On to A111U A120G A145U C150G C169G, for which the reverse-splicing fitness amounted to 0.021.

A111U A120G A145U C150G C169A: the reverse-splicing fitness was 0.0162.

In the case of A111U A120U A145U C150A U176G, the reverse-splicing fitness is 0.00946.

For A111U A120U A145U C150A U176A, the reverse-splicing fitness was determined as 0.0229.

With A111U A120U A145U C150A U176C, the reverse-splicing fitness came to 0.0269.

A111U A120G A145G C169A U176A: the reverse-splicing fitness was 0.0312.

In the case of A111U A120G A145G C169A U176G, the reverse-splicing fitness was 0.00472.

Turning to A111U A120G A145G C169A U176C, the reverse-splicing fitness was determined as 0.0453.

Turning to A111U A120G A145G C150U U176C, the reverse-splicing fitness stood at 0.0446.

With A111U A120G A145G C150U U176G, the reverse-splicing fitness worked out at 0.00725.

In the case of A111U A120G A145G C150U U176A, the reverse-splicing fitness was 0.0295.

As for A111U A120U A145C U176A, the reverse-splicing fitness turned out to be 0.194.

Regarding A111U A120U A145C U176C, the reverse-splicing fitness was 0.168.

For A111U A120U A145C U176G, the reverse-splicing fitness is 0.0539.

Consider A111U A120G A145G U176A, for which the reverse-splicing fitness worked out at 0.0417.

With A111U A120G A145G U176G, the reverse-splicing fitness worked out at 0.00558.

For the variant A111U A120G A145G U176C, the reverse-splicing fitness turned out to be 0.0543.

With A111U A120U A145C C150U C169G U176G, the reverse-splicing fitness was determined as 0.00222.

As to A111U A120U A145C C150U C169G U176C, the reverse-splicing fitness turned out to be 0.00276.

As to A111U A120U A145C C150U C169G U176A, the reverse-splicing fitness was found to be 0.0032.

For the variant A111U A120G A145U C169U, the reverse-splicing fitness stood at 0.164.

Regarding A111U A120G A145U C169A, the reverse-splicing fitness is 0.117.

With A111U A120G A145U C169G, the reverse-splicing fitness came out at 0.213.

In the case of A111U A120U A145U C150G C169A U176C, the reverse-splicing fitness was determined as 0.00274.

For A111U A120U A145U C150G C169A U176G, the reverse-splicing fitness amounted to 0.00255.

On to A111U A120U A145U C150G C169A U176A, for which the reverse-splicing fitness was found to be 0.00319.

With A111U A120U A145G C150G C169G U176G, the reverse-splicing fitness worked out at 0.00343.

As to A111U A120U A145G C150G C169G U176C, the reverse-splicing fitness came to 0.00495.

As for A111U A120U A145G C150G C169G U176A, the reverse-splicing fitness came out at 0.00683.

On to A111U A120U A145G C150U C169A, for which the reverse-splicing fitness came out at 0.00694.

A111U A120U A145G C150U C169U: the reverse-splicing fitness is 0.0617.

Take A111U A120U A145G C150U C169G: the reverse-splicing fitness was 0.0377.

For the variant A111U A120G C150U, the reverse-splicing fitness is 0.0899.

In the case of A111U A120G C150A, the reverse-splicing fitness was 0.02.

Turning to A111U A120G C150G, the reverse-splicing fitness worked out at 0.0154.

A111U A120U A145U C150G U176C: the reverse-splicing fitness came to 0.0208.

Regarding A111U A120U A145U C150G U176G, the reverse-splicing fitness amounted to 0.0043.

Take A111U A120U A145U C150G U176A: the reverse-splicing fitness came out at 0.0111.

For A111U A120G A145U, the reverse-splicing fitness was 0.172.

Take A111U A120G A145G C169A: the reverse-splicing fitness was found to be 0.119.

Regarding A111U A120G A145G C169G, the reverse-splicing fitness turned out to be 0.222.

Turning to A111U A120G A145G C169U, the reverse-splicing fitness came to 0.158.

For A111U A120U A145U C150G C169U U176G, the reverse-splicing fitness was found to be 0.00222.

Take A111U A120U A145U C150G C169U U176A: the reverse-splicing fitness stood at 0.00295.

As to A111U A120U A145U C150G C169U U176C, the reverse-splicing fitness was found to be 0.0031.

Regarding A111U A120U A145C C150U C169G, the reverse-splicing fitness turned out to be 0.0115.

A111U A120U A145C C150U C169A: the reverse-splicing fitness was found to be 0.00229.

With A111U A120U A145C C150U C169U, the reverse-splicing fitness amounted to 0.0159.

As to A111U A120G A145U C150A C169G U176G, the reverse-splicing fitness was determined as 0.00465.

A111U A120G A145U C150A C169G U176C: the reverse-splicing fitness was 0.0194.

In the case of A111U A120G A145U C150A C169G U176A, the reverse-splicing fitness worked out at 0.0165.

The values above are taken from the RNAGym collection of RNA variant scans (doi:10.1093/molbev/msab373).
